Results on two molecules are retold here after article PMC4596477, “Interaction of Myosin Phosphatase Target Subunit (MYPT1) with Myosin Phosphatase-RhoA Interacting Protein (MRIP): A Role of Glutamic Acids in the Interaction” (PLoS ONE, 2015).

The conditions of data set [1]: GST-tag, expressed in bacteria, after affinity purification.
Method: Sedimentation velocity was performed over a range of concentrations of MRIP^545-878 (1.5–13.6 μM), MRIP^724-878 (4.7–42.3 μM), and MRIP^724-837 (7.5–67.1 μM) (Fig 2A).
To elucidate the stoichiometries of the MRIP peptides, the SedAnal program was used for curve fitting (Fig 2B). […] Diffusion contains important information about the shape of the molecule and that information is used in the data analysis. The recovery of samples after centrifugation is essentially 99% of the loading materials. […] The root mean square deviation (RMSD) of the fit was 0.010. […] The RMSD of the fit was 0.008.
We expressed and purified the MRIP peptide (residues 545–929) and the full-length MRIP protein using a chitin-binding tag and a GST-tag, respectively in bacteria.
The nature of data set [2]: AUC sedimentation velocity of MRIP peptides alone (molar mass, sedimentation coefficient, oligomeric state). It counts as physicochemical. An excerpt:
The RMSD of the fit was 0.008.
(§1) The cDNA fragment encoding MRIP peptides were amplified using a full-length MRIP cDNA as a template with the following primer pairs: MRIP^545-878, 5’-[…]/5’[…]; MRIP^724-878, 5’-[…]/5’-[…]; MRIP^724-837, 5’-[…]/5’-[…]. The PCR products were ligated into pCR2.1-TOPO using the TA cloning system and sequenced in both directions. The IMPACT™ (Intein Mediated Purification with an Affinity Chitin-binding Tag) Kit (New England BioLabs) was used to express peptides in bacteria to obtain tag-free peptides. The PCR amplicon encoding MRIP peptides were fused in frame to the chitin binding domain of pTYB12 vector utilizing the NdeI/EcoRI restriction sites. The expression vectors for the MYPT1 peptides, CCLR (residues 924–1030), CC (residues 924–990), and LR (residues 991–1030) were constructed as described: In the reference literature, CCLR and LR were named CCLZ and LZ, respectively. Recombinant peptides were produced in Escherichia coli strain BL21 (DE3) and purified using chitin beads according to the manufacturer's protocol. For further purification, the eluent from chitin beads was loaded on a Vydac C8 reversed phase column and subjected to HPLC using an acetonitrile gradient. Purity and identity of the peptides were confirmed by polyacrylamide gel electrophoresis (PAGE) and mass spectrometry. For the mutagenesis study of LR, the wild-type and mutant LR peptides were synthesized, purified by reverse-phase HPLC, and lyophilized to dryness at the peptide core in Boston Biomedical Research Institute.
Sedimentation velocity experiments were done on a Beckman Instruments Optima XL-I analytical ultracentrifuge equipped with Rayleigh optics. The cells were equipped with sapphire windows and 12 mm charcoal-filled Epon centerpieces. Apparent sedimentation coefficient distribution patterns were computed by the time derivative method. Peptides were dialyzed against 50 mM potassium phosphate buffer (pH 7.4) containing 100 mM KCl, and 1 mM DTT at 4°C overnight and then subjected to AUC at 50,000 rpm and 20°C. Molar mass was computed from sedimentation velocity profiles using SedAnal, which uses a nonlinear least-squares curve fitting algorithm to fit data to solutions of the differential equation (the Lamm equation) describing sedimentation. Fits were performed on time difference data to remove the time-independent systematic baseline components. Values of s and D produced by the fitting procedure were substituted into the Svedberg equation to obtain the molar mass of the protein, M: M=RT/(1−ν¯ρ)s20,wo/D20,wo where ρ is the density of the buffer and ν¯ is the partial specific volume of the protein. Sednterp was employed to compute values of ρ and ν¯ from the amino acid sequence.

The next data set concerns CCLR. In words: AUC interaction of MRIP peptides with MYPT1 peptide CCLR (residues 924–1030). It counts as binding. Conditions: equimolar mixtures (MRIP^545-878 14 μM each; MRIP^724-878 30 μM each; MRIP^724-837 67 μM each) and 3-, 9-fold dilutions, pH 7.4, 100 mM KCl, 20°C. How it is done: AUC was performed to examine the interactions of MRIP^545-878, MRIP^724-878, or MRIP^724-837 individually with the MYPT1 peptide (residues 924–1030) containing a putative coiled coil domain (CC) and the leucine repeat region (LR), designated as CCLR.
Fig 3 All MRIP peptides bind to the C-terminal region of MYPT1, CCLR (residues 924–1030). Concentration-normalized time derivative g(s*) graphs of the MRIP peptides by themselves and in equimolar mixtures: Lines, CCLR (30 μM); +, individual MRIP peptides by themselves (MRIP^545-878, 14 μM; MRIP^724-878, 50 μM; MRIP^724-837, 67 μM); black filled-in circles, original equimolar mixtures (MRIP^545-878, 14 μM each; MRIP^724-878, 30 μM each; MRIP^724-837, 67 μM each); open circles, 3-fold dilutions; gray filled-in circles, 9-fold dilutions.
as §1, with “For the mutagenesis study of LR, the wild-type and mutant LR peptides were synthesized, purified by reverse-phase HPLC, and lyophilized to dryness at the peptide core in Boston Biomedical Research Institute.” left out

A further data set concerns the target LR. In words: SPR, MRIP^724-878 as analyte over immobilized LR. It counts as binding. Particulars: Biacore 3000, 25°C, analyte MRIP^724-878 (dimeric) 85.6–0.7 μM, LR immobilized (244.8 RU), nebulin-derived peptide reference, 50 mM potassium phosphate pH 7.4, 100 mM KCl, steady-state affinity, mean and standard deviation, 6 experiments. The protocol: Analytes CCLR, CC, LR: Interactions between analytes, CCLR (167–1 μM), CC (318–10 μM), and LR (569–5 μM) with immobilized ligand, MRIP^724-878 (1800 RU) after correction for nonspecific binding using G-actin (2230 RU). Shown is a representative out of 9 experiments for CCLR and 8 for LR in each, duplicates or triplicates. Insets show fittings of steady-state affinity. Ligand LR: Interaction of analyte, MRIP^724-878 (85.6–0.7 μM) with immobilized ligand, LR (244.8 RU) after correction for nonspecific binding using a nebulin-derived peptide (600 RU). Shown is a representative out of 6 experiments.
This could be explained by the fact that free, solution-based MRIP^724-878 might have preserved homodimers better than the amine coupled. Consequently, we speculated that the MRIP^724-878 dimer might have higher MYPT1-binding affinity than its monomer.
Binding analyses of SPR were conducted on a Biacore 3000 (GE Healthcare) at 25°C. Sensor chips and reagents for immobilization (1-ethyl-3-(3-dimethylaminopropyl) carbodiimide, N-hydroxyl-succinimide, and ethanolamine) were purchased from GE Healthcare. Peptides were immobilized onto a CM5 sensor chip at 232–5841 resonance units (RU) using amine coupling. Binding studies were done using two-fold serial dilutions of the peptides in 50 mM potassium phosphate buffer (pH 7.4) containing 100 mM KCl. […]
Background: In SPR one partner is held on a chip, and binding of the other changes the refractive index at the surface.

Data set [3] in a line: AUC of MYPT1 peptides alone (concentration dependence, self-association). It counts as physicochemical. Particulars: CC alone, 107 μM and 3-, 9-fold dilutions, MRIP^724-878 alone, 50 μM and 3-, pH 7.4, 20°C. An excerpt: To determine the minimal MRIP-binding region of MYPT1, AUC was employed to examine interactions between sub-domains of CCLR, CC (residues 924–990) and LR (residues 991–1030) with MRIP^724-878 (Fig 4A). CC is the putative coiled coil domain and LR contains 16 upstream amino acid residues (residues 991–1006) in addition to the leucine repeat (residues 1007–1028). MRIP^724-878 was chosen because of its good fit to a single component, single-species model. […] Global fitting of the mixture to a two-component model produced a good fit and the RMSD of the fit was 0.010 (Fig 4B; Fitting of CC).
Fig 4 LR contains sufficient residues for the MYPT1/MRIP interaction. […] CC; Concentration-normalized time derivative g(s*) plots of CC, MRIP^724-878, and equimolar mixtures of the two peptides: Black filled-in circles, an original CC alone (107 μM); dark gray filled-in circles, a 3-fold dilution of CC alone; light gray filled-in circles, a 9-fold dilution of CC alone; black filled-in triangles, an original MRIP^724-878 alone (50 μM); dark gray filled-in triangles, a 3-fold dilution of MRIP^724-878 alone; light gray filled-in triangles, a 9-fold dilution of MRIP^724-878 alone; a black line, an original equimolar mixture of MRIP^724-878/CC (50 μM each): a dark gray line, a 3-fold dilution of the mixture; a light gray line, a 9-fold dilution of the mixture. […]

B1: GST-tagged full-length MRIP: full-length MRIP protein with GST-tag, expressed in bacteria (protein, UniProt Q6WCQ1 1-1025, looked up)
chain: MSAAKENPCRKFQANIFNKSKCQNCFKPRESHLLNDEDLTQAKPIYGGWLLLAPDGTDFDNPVHRSRKWQRRFFILYEHGLLRYALDEMPTTLPQGTINMNQCTDVVDGEGRTGQKFSLCILTPEKEHFIRAETKEIVSGWLEMLMVYPRTNKQNQKKKRKVEPPTPQEPGPAKVAVTSSSSSSSSSSSIPSAEKVPTTKSTLWQEEMRTKDQPDGSSLSPAQSPSQSQPPAASSLREPGLESKEEESAMSSDRMDCGRKVRVESGYFSLEKTKQDLKAEEQQLPPPLSPPSPSTPNHRRSQVIEKFEALDIEKAEHMETNAVGPSPSSDTRQGRSEKRAFPRKRDFTNEAPPAPLPDASASPLSPHRRAKSLDRRSTEPSVTPDLLNFKKGWLTKQYEDGQWKKHWFVLADQSLRYYRDSVAEEAADLDGEIDLSACYDVTEYPVQRNYGFQIHTKEGEFTLSAMTSGIRRNWIQTIMKHVHPTTAPDVTSSLPEEKNKSSCSFETCPRPTEKQEAELGEPDPEQKRSRARERRREGRSKTFDWAEFRPIQQALAQERVGGVGPADTHEPLRPEAEPGELERERARRREERRKRFGMLDATDGPGTEDAALRMEVDRSPGLPMSDLKTHNVHVEIEQRWHQVETTPLREEKQVPIAPVHLSSEDGGDRLSTHELTSLLEKELEQSQKEASDLLEQNRLLQDQLRVALGREQSAREGYVLQATCERGFAAMEETHQKKIEDLQRQHQRELEKLREEKDRLLAEETAATISAIEAMKNAHREEMERELEKSQRSQISSVNSDVEALRRQYLEELQSVQRELEVLSEQYSQKCLENAHLAQALEAERQALRQCQRENQELNAHNQELNNRLAAEITRLRTLLTGDGGGEATGSPLAQGKDAYELEVLLRVKESEIQYLKQEISSLKDELQTALRDKKYASDKYKDIYTELSIAKAKADCDISRLKEQLKAATEALGEKSPDSATVSGYDIMKSKSNPDFLKKDRSCVTRQLRNIRSKSVIEQVSWDT
modifications: full-length GST tag
As to B1, the precipitation result in data set [1] is recorded as “precipitated after affinity purification”.

B2: MRIP^724-878: recombinant tag-free MRIP peptide, residues 724–878; CC2-CC4 (protein)
chain: CERGFAAMEETHQKKIEDLQRQHQRELEKLREEKDRLLAEETAATISAIEAMKNAHREEMERELEKSQRSQISSVNSDVEALRRQYLEELQSVQRELEVLSEQYSQKCLENAHLAQALEAERQALRQCQRENQELNAHNQELNNRLAAEITRLRT
modifications: left off: chitin-binding domain (IMPACT kit, pTYB12), N-terminal, cleaved
notes: recombinant tag-free MRIP peptide, residues 724–878; CC2-CC4
A word on the Kd: it is the constant that tells how readily two partners part at equilibrium. As to B2, the molar mass in data set [2] (AUC sedimentation velocity, SedAnal global fit to single component, single-species ideal model, 4.7–42.3 μM, 50 mM potassium phosphate pH 7.4, 100 mM KCl, 1 mM DTT, 20°C, CL 0.95) is 38.2±0.3 kDa. For the same molecule, the “oligomeric state in solution” value in data set [2] (AUC sedimentation velocity, pH 7.4, 100 mM KCl, 20°C) is given as “forms a tight dimer in solution”. For the same molecule, the sedimentation coefficient in data set [2] (AUC sedimentation velocity, single component, single-species ideal model, 4.7–42.3 μM, pH 7.4, 100 mM KCl, 20°C, CL 0.95) is on record as 2.007±0.002 S. In addition, the “concentration dependence of g(s*) curves” value is “no-concentration dependence and the presence of one species in solution” in data set [2] (AUC, MRIP^545-878 1.5–13.6 μM, MRIP^724-878 4.7–42.3 μM, MRIP^724-837 7.5–67.1 μM, pH 7.4, 20°C); “superimposable, indicating concentration-independence” in data set [3]. Moreover, the “binding to CCLR (shift in g(s*) curves)” value in the data set on CCLR is “bind to CCLR”. In addition, the Kd at LR is 40 ± 19 µM.
